# Results published in patent publication US12679878B2, “CRF2 receptor agonists and their use in therapy” (SANOFI, priority 2020, dated 2026).
# Starred links: 1 amine or outer side, 2 acyl side, 3 side chain; linkers in the order of their positions; H or OH if unused. Non-standard residues stand in square brackets, D forms with d. Groups on a side chain read outwards from the residue. No end group written: not given here. *: point of attachment. C18 diacid = O=C(O)CCCCCCCCCCCCCCCCC(=O)*; γGlu = O=C(O)[C@H](CCC(=O)[*:2])N[*:1]; AEEA = NCCOCCOCC(=O)O; Aib = CC(C)(N)C(=O)O
# B1: SEQ ID NO: 149 (peptide)
# peptide: IVLSLD[dV]PIKLK([AEEA-AEEA-γGlu-C18 diacid])QILLKQERQKK[Aib]REQAETNKRILERV-NH2
# modifications: N-terminus assumed
# SMILES: CC[C@H](C)[C@H](N)C(=O)N[C@H](C(=O)N[C@@H](CC(C)C)C(=O)N[C@@H](CO)C(=O)N[C@@H](CC(C)C)C(=O)N[C@@H](CC(=O)O)C(=O)N[C@@H](C(=O)N1CCC[C@H]1C(=O)N[C@H](C(=O)N[C@@H](CCCCN)C(=O)N[C@@H](CC(C)C)C(=O)N[C@@H](CCCCNC(=O)COCCOCCNC(=O)COCCOCCNC(=O)CC[C@H](NC(=O)CCCCCCCCCCCCCCCCC(=O)O)C(=O)O)C(=O)N[C@@H](CCC(N)=O)C(=O)N[C@H](C(=O)N[C@@H](CC(C)C)C(=O)N[C@@H](CC(C)C)C(=O)N[C@@H](CCCCN)C(=O)N[C@@H](CCC(N)=O)C(=O)N[C@@H](CCC(=O)O)C(=O)N[C@@H](CCCNC(=N)N)C(=O)N[C@@H](CCC(N)=O)C(=O)N[C@@H](CCCCN)C(=O)N[C@@H](CCCCN)C(=O)NC(C)(C)C(=O)N[C@@H](CCCNC(=N)N)C(=O)N[C@@H](CCC(=O)O)C(=O)N[C@@H](CCC(N)=O)C(=O)N[C@@H](C)C(=O)N[C@@H](CCC(=O)O)C(=O)N[C@H](C(=O)N[C@@H](CC(N)=O)C(=O)N[C@@H](CCCCN)C(=O)N[C@@H](CCCNC(=N)N)C(=O)N[C@H](C(=O)N[C@@H](CC(C)C)C(=O)N[C@@H](CCC(=O)O)C(=O)N[C@@H](CCCNC(=N)N)C(=O)N[C@H](C(N)=O)C(C)C)[C@@H](C)CC)[C@@H](C)O)[C@@H](C)CC)[C@@H](C)CC)C(C)C)C(C)C
# B2: SEQ ID NO: 16 (peptide)
# peptide: IVLSLDVPIGLK([AEEA-AEEA-γGlu-C18 diacid])QKLLKQQRQRKERQQAEKNARILARV-NH2
# modifications: N-terminus assumed
# SMILES: CC[C@H](C)[C@H](N)C(=O)N[C@H](C(=O)N[C@@H](CC(C)C)C(=O)N[C@@H](CO)C(=O)N[C@@H](CC(C)C)C(=O)N[C@@H](CC(=O)O)C(=O)N[C@H](C(=O)N1CCC[C@H]1C(=O)N[C@H](C(=O)NCC(=O)N[C@@H](CC(C)C)C(=O)N[C@@H](CCCCNC(=O)COCCOCCNC(=O)COCCOCCNC(=O)CC[C@H](NC(=O)CCCCCCCCCCCCCCCCC(=O)O)C(=O)O)C(=O)N[C@@H](CCC(N)=O)C(=O)N[C@@H](CCCCN)C(=O)N[C@@H](CC(C)C)C(=O)N[C@@H](CC(C)C)C(=O)N[C@@H](CCCCN)C(=O)N[C@@H](CCC(N)=O)C(=O)N[C@@H](CCC(N)=O)C(=O)N[C@@H](CCCNC(=N)N)C(=O)N[C@@H](CCC(N)=O)C(=O)N[C@@H](CCCNC(=N)N)C(=O)N[C@@H](CCCCN)C(=O)N[C@@H](CCC(=O)O)C(=O)N[C@@H](CCCNC(=N)N)C(=O)N[C@@H](CCC(N)=O)C(=O)N[C@@H](CCC(N)=O)C(=O)N[C@@H](C)C(=O)N[C@@H](CCC(=O)O)C(=O)N[C@@H](CCCCN)C(=O)N[C@@H](CC(N)=O)C(=O)N[C@@H](C)C(=O)N[C@@H](CCCNC(=N)N)C(=O)N[C@H](C(=O)N[C@@H](CC(C)C)C(=O)N[C@@H](C)C(=O)N[C@@H](CCCNC(=N)N)C(=O)N[C@H](C(N)=O)C(C)C)[C@@H](C)CC)[C@@H](C)CC)C(C)C)C(C)C
# B3: SEQ ID NO: 150 (peptide)
# peptide: IVLSLD[dV]PIGLK([AEEA-AEEA-γGlu-C18 diacid])QILLKQERQKK[Aib]RQQAETNKRILERV-NH2
# modifications: N-terminus assumed
# SMILES: CC[C@H](C)[C@H](N)C(=O)N[C@H](C(=O)N[C@@H](CC(C)C)C(=O)N[C@@H](CO)C(=O)N[C@@H](CC(C)C)C(=O)N[C@@H](CC(=O)O)C(=O)N[C@@H](C(=O)N1CCC[C@H]1C(=O)N[C@H](C(=O)NCC(=O)N[C@@H](CC(C)C)C(=O)N[C@@H](CCCCNC(=O)COCCOCCNC(=O)COCCOCCNC(=O)CC[C@H](NC(=O)CCCCCCCCCCCCCCCCC(=O)O)C(=O)O)C(=O)N[C@@H](CCC(N)=O)C(=O)N[C@H](C(=O)N[C@@H](CC(C)C)C(=O)N[C@@H](CC(C)C)C(=O)N[C@@H](CCCCN)C(=O)N[C@@H](CCC(N)=O)C(=O)N[C@@H](CCC(=O)O)C(=O)N[C@@H](CCCNC(=N)N)C(=O)N[C@@H](CCC(N)=O)C(=O)N[C@@H](CCCCN)C(=O)N[C@@H](CCCCN)C(=O)NC(C)(C)C(=O)N[C@@H](CCCNC(=N)N)C(=O)N[C@@H](CCC(N)=O)C(=O)N[C@@H](CCC(N)=O)C(=O)N[C@@H](C)C(=O)N[C@@H](CCC(=O)O)C(=O)N[C@H](C(=O)N[C@@H](CC(N)=O)C(=O)N[C@@H](CCCCN)C(=O)N[C@@H](CCCNC(=N)N)C(=O)N[C@H](C(=O)N[C@@H](CC(C)C)C(=O)N[C@@H](CCC(=O)O)C(=O)N[C@@H](CCCNC(=N)N)C(=O)N[C@H](C(N)=O)C(C)C)[C@@H](C)CC)[C@@H](C)O)[C@@H](C)CC)[C@@H](C)CC)C(C)C)C(C)C
# B4: SEQ ID NO: 151 (peptide)
# peptide: IVLSLD[dV]PIGLK([AEEA-AEEA-γGlu-C18 diacid])QILLKQERQKK[Aib]REQAEKNKRILERV-NH2
# modifications: N-terminus assumed
# SMILES: CC[C@H](C)[C@H](N)C(=O)N[C@H](C(=O)N[C@@H](CC(C)C)C(=O)N[C@@H](CO)C(=O)N[C@@H](CC(C)C)C(=O)N[C@@H](CC(=O)O)C(=O)N[C@@H](C(=O)N1CCC[C@H]1C(=O)N[C@H](C(=O)NCC(=O)N[C@@H](CC(C)C)C(=O)N[C@@H](CCCCNC(=O)COCCOCCNC(=O)COCCOCCNC(=O)CC[C@H](NC(=O)CCCCCCCCCCCCCCCCC(=O)O)C(=O)O)C(=O)N[C@@H](CCC(N)=O)C(=O)N[C@H](C(=O)N[C@@H](CC(C)C)C(=O)N[C@@H](CC(C)C)C(=O)N[C@@H](CCCCN)C(=O)N[C@@H](CCC(N)=O)C(=O)N[C@@H](CCC(=O)O)C(=O)N[C@@H](CCCNC(=N)N)C(=O)N[C@@H](CCC(N)=O)C(=O)N[C@@H](CCCCN)C(=O)N[C@@H](CCCCN)C(=O)NC(C)(C)C(=O)N[C@@H](CCCNC(=N)N)C(=O)N[C@@H](CCC(=O)O)C(=O)N[C@@H](CCC(N)=O)C(=O)N[C@@H](C)C(=O)N[C@@H](CCC(=O)O)C(=O)N[C@@H](CCCCN)C(=O)N[C@@H](CC(N)=O)C(=O)N[C@@H](CCCCN)C(=O)N[C@@H](CCCNC(=N)N)C(=O)N[C@H](C(=O)N[C@@H](CC(C)C)C(=O)N[C@@H](CCC(=O)O)C(=O)N[C@@H](CCCNC(=N)N)C(=O)N[C@H](C(N)=O)C(C)C)[C@@H](C)CC)[C@@H](C)CC)[C@@H](C)CC)C(C)C)C(C)C
# B5: SEQ ID NO: 147 (peptide)
# peptide: IVLSLD[dV]PIGLK([AEEA-AEEA-γGlu-C18 diacid])QILLKQERQKK[Aib]REQAETNKQILAQV-NH2
# modifications: N-terminus assumed
# SMILES: CC[C@H](C)[C@H](N)C(=O)N[C@H](C(=O)N[C@@H](CC(C)C)C(=O)N[C@@H](CO)C(=O)N[C@@H](CC(C)C)C(=O)N[C@@H](CC(=O)O)C(=O)N[C@@H](C(=O)N1CCC[C@H]1C(=O)N[C@H](C(=O)NCC(=O)N[C@@H](CC(C)C)C(=O)N[C@@H](CCCCNC(=O)COCCOCCNC(=O)COCCOCCNC(=O)CC[C@H](NC(=O)CCCCCCCCCCCCCCCCC(=O)O)C(=O)O)C(=O)N[C@@H](CCC(N)=O)C(=O)N[C@H](C(=O)N[C@@H](CC(C)C)C(=O)N[C@@H](CC(C)C)C(=O)N[C@@H](CCCCN)C(=O)N[C@@H](CCC(N)=O)C(=O)N[C@@H](CCC(=O)O)C(=O)N[C@@H](CCCNC(=N)N)C(=O)N[C@@H](CCC(N)=O)C(=O)N[C@@H](CCCCN)C(=O)N[C@@H](CCCCN)C(=O)NC(C)(C)C(=O)N[C@@H](CCCNC(=N)N)C(=O)N[C@@H](CCC(=O)O)C(=O)N[C@@H](CCC(N)=O)C(=O)N[C@@H](C)C(=O)N[C@@H](CCC(=O)O)C(=O)N[C@H](C(=O)N[C@@H](CC(N)=O)C(=O)N[C@@H](CCCCN)C(=O)N[C@@H](CCC(N)=O)C(=O)N[C@H](C(=O)N[C@@H](CC(C)C)C(=O)N[C@@H](C)C(=O)N[C@@H](CCC(N)=O)C(=O)N[C@H](C(N)=O)C(C)C)[C@@H](C)CC)[C@@H](C)O)[C@@H](C)CC)[C@@H](C)CC)C(C)C)C(C)C
# B6: SEQ ID NO: 148 (peptide)
# peptide: IVLSLDVPIGLK([AEEA-AEEA-γGlu-C18 diacid])QILLKQERQKK[Aib]REQAETNKRILERV-NH2
# modifications: N-terminus assumed
# SMILES: CC[C@H](C)[C@H](N)C(=O)N[C@H](C(=O)N[C@@H](CC(C)C)C(=O)N[C@@H](CO)C(=O)N[C@@H](CC(C)C)C(=O)N[C@@H](CC(=O)O)C(=O)N[C@H](C(=O)N1CCC[C@H]1C(=O)N[C@H](C(=O)NCC(=O)N[C@@H](CC(C)C)C(=O)N[C@@H](CCCCNC(=O)COCCOCCNC(=O)COCCOCCNC(=O)CC[C@H](NC(=O)CCCCCCCCCCCCCCCCC(=O)O)C(=O)O)C(=O)N[C@@H](CCC(N)=O)C(=O)N[C@H](C(=O)N[C@@H](CC(C)C)C(=O)N[C@@H](CC(C)C)C(=O)N[C@@H](CCCCN)C(=O)N[C@@H](CCC(N)=O)C(=O)N[C@@H](CCC(=O)O)C(=O)N[C@@H](CCCNC(=N)N)C(=O)N[C@@H](CCC(N)=O)C(=O)N[C@@H](CCCCN)C(=O)N[C@@H](CCCCN)C(=O)NC(C)(C)C(=O)N[C@@H](CCCNC(=N)N)C(=O)N[C@@H](CCC(=O)O)C(=O)N[C@@H](CCC(N)=O)C(=O)N[C@@H](C)C(=O)N[C@@H](CCC(=O)O)C(=O)N[C@H](C(=O)N[C@@H](CC(N)=O)C(=O)N[C@@H](CCCCN)C(=O)N[C@@H](CCCNC(=N)N)C(=O)N[C@H](C(=O)N[C@@H](CC(C)C)C(=O)N[C@@H](CCC(=O)O)C(=O)N[C@@H](CCCNC(=N)N)C(=O)N[C@H](C(N)=O)C(C)C)[C@@H](C)CC)[C@@H](C)O)[C@@H](C)CC)[C@@H](C)CC)C(C)C)C(C)C
# Molecular target: human corticotropin-releasing factor 2α (CRF2 α receptor) (human), Q13324
# Sequence (Q13324 20-411): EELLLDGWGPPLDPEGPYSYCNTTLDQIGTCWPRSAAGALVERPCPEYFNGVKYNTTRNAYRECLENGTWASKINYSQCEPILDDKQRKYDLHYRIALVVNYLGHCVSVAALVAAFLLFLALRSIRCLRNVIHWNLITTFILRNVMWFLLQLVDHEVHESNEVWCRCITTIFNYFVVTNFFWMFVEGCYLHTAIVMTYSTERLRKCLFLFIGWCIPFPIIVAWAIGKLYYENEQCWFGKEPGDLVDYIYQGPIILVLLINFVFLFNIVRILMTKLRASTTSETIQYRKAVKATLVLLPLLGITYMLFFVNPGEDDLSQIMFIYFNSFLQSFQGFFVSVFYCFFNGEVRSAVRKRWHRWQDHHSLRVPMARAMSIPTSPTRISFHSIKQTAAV
# Assay: cell-based or functional assay
Binder,"EC50 [nM], 0% HSA [nM]","EC50 [nM], 0.1% HSA [nM]"
B1,0.06,2.54
B2,0.3,–
B3,0.07,3.99
B4,0.08,3.87
B5,0.18,8.17
B6,0.29,14.3
